Measurements: the DeepSol protein solubility set

Experiment: soluble on expression in E. coli; label from the status in PepcDB or PDB records

Row | Sequence | soluble on expression in E. coli
1 | MHHHHHHSSGVDLGTENLYFQSMEEHDSPTEASQPIVEEEETKTFKDLGVTDVLCEACDQLGWTKPTKIQIEAIPLALQGRDIIGLAETGSGKTGAFALPILNALLETPQRLFALVLTPTRELAFQISEQFEALGSSIGVQSAVIVGGIDSMSQSLALAKKPHIIIATPGRLIDHLENTKGFNLRALKYLVMDEADRILNMDFETEVDKILKVIPRDRKTFLFSATMTKKVQKLQRAALKNPVKCAVSS | soluble
2 | SILEGGGVMNLNPGNNLLHQPPAWTDSYSTCNVSSGFFGGQWHEIHPQYWTKYQVWEWLQHLLDTNQLDANCIPFQEFDINGEHLCSMSLQEFTRAAGTAGQLLYSNLQHLKWNGQCSSDLFQSTHNVIVKTEQTEPSIMNTWKDENYLYDTNYGSTVDLLDSKTFCRAQISMTTTSHLPVAESPDMKKEQDPPAKCHTKKHNPRGTHLWEFIRDILLNPDKNPGLIKWEDRSEGVFRFLKSEAVAQLWGKKKNNSSMTYEKLSRAMRYYYKREILERVDGRRLVYKFGKNARGWRENEN | soluble
3 | MGSSHHHHHHGGTGENLYFQGGSGAFRGSSARLAATPGVGIAPETTPVKYVPEMLNIQNAKWWNGRGKPVYRSTYNEKSWLEKARWGAFTKGSRPVMRQRYSAAALKEALEMVPEGFETCDVPRPPQRIRAQSEGVVGRWYTNYWTLHSVRYQCQLAGVEWQFGERQRPRTNYDEPHMYTDFEETKAIRDYRSRWINVNRSLVGMSRRMKESEEEARYLHFKKVQDTFWSNRKVLVNRIKSMHNQGTLQSAKDLPIKTINIKAFLAE | not soluble
4 | MSLDVCRGMLCGFGAVCEPSVEDPGRASCVCKKNVCPAMVAPVCGSDASTYSNECELQRAQCNQQRRIRLLRQGPCGSRDPCANVTCSFGSTCVPSADGQTASCLCPTTCFGAPDGTVCGSDGVDYPSECQLLRHACANQEHIFKKFDGPCDPCQGSMSDLNHICRVNPRTRHPEMLLRPENCPAQHTPICGDDGVTYENDCVMSRIGAARGLLLQKVRSGQCQTRDQCPETCQFNSVCLSRRGRPHCSCDRVTCDGAYRPVCAQDGHTYDNDCWRQQAECRQQQTIPPKHQGPCDQTPSPCRGAQCAFGATCTVKNGKAVCECQRVCSGGYDPVCGSDGVTYGSVCELESMACTLGREIRVARRGPCDRCGQCRFGSLCEVETGRCVCPSECVESAQPVCGSDGHTYASECELHVHACTHQISLYVASAGHCQTCGETVCTFEGHHHHHH | not soluble
5 | MGSDKIHHHHHHMNKRRNGLSSRSSTKGITTITIDPLMLVEMMHIHDSAFPIGGYTHSFGLETYIQRDIVKDENSLIQWCRTYLYDNLGYGDGILLKETLEVLKKSGSLAAIIEVDRLAHAQKLARESREGSLKMGRQFLQTVLPLQEDESLSQWAQLIRAKEAHGHYATTYGVFSYTRAYPDQMTMIAFLYSSVANLVHNAVRAIPLGQSTGVRVIHQLHEDCLYVAQQVVARSLNDLSNHAIGIELASMEHEHLHSRLFIS | not soluble
6 | MSRGPSSAVLPSALGSRKLGPRSLSCLSDLDGGVALEPRACRPPGSPGRAPPPTPAPSGCDPRLRPIILRRARSLPSSPERRQKAAGAPGAACRPGCSQKLRVRFADALGLELAQVKVFNAGDDPSVPLHVLSRLAINSDLCCSSQDLEFTLHCLVPDFPPPVEAADFGERLQRQLVCLERVTCSDLGISGTVRVCNVAFEKQVAVRYTFSGWRSTHEAVARWRGPAGPEGTEDVFTFGFPVPPFLLELGSRVHFAVRYQVAGAEYWDNNDHRDYSITCRNHALHMPRGECEESWIHFI | soluble
7 | GPLPVDLRGKTAFVAGVADSNGYGWAICKLLRAAGARVLVGTWPPVYSIFKKGLESSRFEQDSFYAQEPSSKVAAEAAEKPVDLVFDKIYPLDAVFDTPQDVPPEVSSNKRYAGVGGFTISEVAEAVRADVGQIDILVHSLANGPEVTKPLLQTSRKGYLAAVSSSSYSFVSLLQHFLPLMKEGGSALALSYIASEKVIPGYGGGMSSAKAALESDCRTLAFEAGRARAVRVNCISAGPLKSRAASAIGKAGDKTFIDLAIDYSEANAPLQKELESDDVGRAALFLLSPLARAVTGATLYVDNGLHAMGQALDSKSLTP | soluble
8 | MFSSAHSGLLEKLFHYIDLHQDEFVQTLKEWVAIESDSVQPVPRLRQKLFQMMALAADKLRNLGAGVESIDLGSQQMPDGQSLPIPPILLAELGSDPEKPTVCFYGHLDVQPAQKDDGWLTDPYTLTEVDGKLYGRGATDNKGPVLAWINAVSTFRALQQDLPVNIKLILEGMEEAGSIALEELVMREKDHFFSSVDYIVISDNLWLSQRKPALTYGTRGNCYFTVEVKCRDQDFHSGTFGGILNEPMADLVALLGSLVDSSGHILIPGIYDQMAPITEGEKTMYKNIDMDLEEYQNINQVEKFLFDTKEELLMHLWRYPSLSIHGIEGAFDEPGTKTVIPGRVLGKFSIRLVPTMSPSVVEKQVTQHLEAVFSKRNSFNKMAVSMVLGLHPWTANVNDTQYLAAQRTIKTVFGVNPDMIRDGSTIPIAKIFQAITQKSVMMLPLGAVDDGEHSQNEKINRWNYIQGSKLFAAFFLELSKQHSGHQMPSSVY | not soluble
9 | MSLVVVSDVFVSVRGRVMLNVEAMNMTESVGNYVKHRRVPVVLPDAKYTTYFVPAISGESIAHGFQEVLAEVGKKNGLKVCKLCEKGIFLKSTNENVFKESFSSDPPKDDFEFEKTVIENCIVEDVGGFLYAPRAGGNVKRTSNFYTGYMIPVRESIEGAVIEPQLHSRYALGTPFVEGGQGQMIYYVELSSAVYTFSFDLDTRYIGRTTFSYEKAGTEVGKRSERINAALEALKKFLIEFAFGAKKTRFLPVMEWDSLVVAVSDDVWTVPSPYTAGYIDNARKKKEKVNFNTKLFVYPEGGSFEEVVVEAIEEAKERAGKEGHHHHHH | soluble
10 | MIQVLGTSSGSGKTTIAMALSRIFFRSGYRVAPFKAVNMSLNSVIVEGEYEIARAQWLQAKAANTEPTRFMNPILLKPEGMGASQVIMLGKSLGKKTIPEYYEFIMNDGKRVIREAIDRISDDYDLIIAEGAGSPAEINLLDRDMANIYVSSIYNTPAILVGDIDRGGVFASIYGTLSLMPRPDLVRWIMINKMRGDASLLEPGLKKLENLTGKRVIGVVPYSENRLPGEDSFDYDHPRARGSKITIVRYPFMENYSDLDPLVYTSTGYNYVTAENASDLSDADLIVLPGSKNVFADLEYMRKNGIDKIIIENAGRAKILGICGGYQMLGQRITMGEISADGLGLLRAKTNYERTKTTRSVRYRVDNTLMSGTWEEGYEIHYGAVISLGGERMNETDKGPEGNVDANRLVFGTNIHGILANRSVFRFMTGRDIGEPEEYLRSEIDRFADVVKSSIDVADLIEYASSRE | not soluble
11 | MLLQNILPFAHCLLRKALPEGGNALDGTAGNGHDTLFLAQTAGIRGKVWAFDIQPQALNNTRCRLQEAGYSNVRLILDGHENLKQYIPKPLDAAIFNFGWLPGGDKSLTTRTETSIAALSATLSLLKENGMLIAVLYPGHENGKQEAEAIEQWAKNLPQEQFAVLRYGFTNRKNSPPYLLVFEKLRQKLEHHHHHH | soluble
12 | MLKVSDLLTLEELPGITLVAGHKNQDQPILKVNILENPDILDWLTAGELLLTTGYIFKDDRKLQKNFLKELAKHHCAALGFKTQRYFEEVPPDLIKLADEMNVPILAIPYNYTFSQIADVLKSRVTLEQFDMNAQETALHNKIYQILETGSSSFHLLQDLAETIQNPVLLLNDHFEGVNFFDLPKNPIRISSILEDRQETSEFQKQLLEQSHPLLRFYQEPIHLQLKLQNQVVPIEIYPIKKKNVILYYLLVWNTLAPLRPVDVAHFKITAHYLLLQLQLEYSRKFEEYQQRNELFFKLFAHEKRDQAVFQQFQQYYRLAIDKPYAILLISLTLNERQRQERMSILGNQLNQVILGDKQKIVCIEIDSSFVLLVENPPEKEGDYLKMMQRLAQSSINQLMKVQEDVELFLTIGPKIQGLTQIHESYQQAIDVLAFQRQFVAEKPEMRIASYSNFHFRQTLQRYFLEEGQATLRKKYLQPLQKSDQQQHTDFVHTLNVYFQSKRNLSQTAKKLFIHRNTLLQRLEKIEQLVLLDFDKEVDLLALEVALFVGT | not soluble
13 | GSPGIPGSTRMAYQHCPFDTLLILDFETTSDAANQDYPCEVIQFAIVAYDVPNDKIREDISFNKYVKPVLNRTLTKNCVDFTGIPQRSIDTADTFDVVYEQFQQWLITLGLEEGKFAFVCDSRQDLWRIAQYQMKLSNIQMPAFFRQYINLYKIFTNEMDRMGPKELSATTNIGKMNEYYDLPTIGRAHDAMDDCLNIATILQRMINMGAKVTVNELLTCCASWRRQPLVYNKEWRSSFMDAGKIFERVLPLVVTTIRAGDFRLEMYGVCRYCRKGMDVCGTSHQQTPHDLYKNEEDPIHFAKIAGYY | soluble
14 | MGSDKIHHHHHHMILKYAPLNLDQKFSLVYFRMTHDNCWSKITEKHDVMIHTLKLLPNKDRDIIYGLFELKVKGKRTLRDFLRDLNRSGTIRKLGGLSISELKSNIYIIDLYETYSGMIQGKLNDYNSIFDFDLVKYGVEEKYAVIPSENVNELKNELQSMGQLFDFRAKYFPNFYEVLTPYFNFTPIEMQIIIEAYNLGYYDIPRRAGIREIAEYFGLSKSTVQEYIRNAESKTMSNMKLFRMLNELKRL | not soluble
15 | MPRLYLGKIPYNARERDVERFLKGYGKINNISMKYGFAFVDFEDSRDAEDACHDLDGKTMEGSSMRLVVEMARGKPRGNDRHGSRSPRRRSRSPRRRSRTPPRRRSRSRDRKRSRRSRSRSSSRSRSPVRESRRRSESRSPSPKRDLKREASRSRSPLPAKDRSRTRSGSPPKNGGDRKRSVSRGRSHSRDGSNRSVSRSPSPGSPKD | not soluble
16 | MPGSDAGPRRRGVHEQRRNRMSNEAKCPFHQAAQNGTSNRDWWPNQLDLSILHRHSSLSDPMGKDFNYAQAFEKLDLAAVKRDLHALMTTSQDWWPADFGHYGGLFIRMAWHSAGTYRTADGRGGAGEGQQRFAPLNSWPDNANLDKARRLLWPIKQKYGRAISWADLLILTGNVALESMGFKTFGFAGGRADTWEPEDVYWGSEKIWLELSGGPNSRYSGDRQLENPLAAVQMGLIYVNPEGPDGNPDPVAAARDIRDTFARMAMNDEETVALIAGGHTFGKTHGAGPASNVGAEPEAAGIEAQGLGWKSAYRTGKGADAITTGLEVTWTTTPTQWSHNFFENLFGYEWELTKSPAGAHQWVAKGADAVIPDAFDPSKKHRPTMLTTDLSLRFDPAYEKISRRFHENPEQFADAFARAWFKLTHRDMGPRARYLGPEVPAEVLLWQDPIPAVDHPLIDAADAAELKAKVLASGLTVSQLVSTAWAAASTFRGSDKRGGANGARIRLAPQKDWEANQPEQLAAVLETLEAIRTAFNGAQRGGKQVSLADLIVLAGCAGVEQAAKNAGHAVTVPFAPGRADASQEQTDVESMAVLEPVADGFRNYLKGKYRVPAEVLLVDKAQLLTLSAPEMTVLLGGLRVLGANVGQSRHGVFTAREQALTNDFFVNLLDMGTEWKPTAADADVFEGRDRATGELKWTGTRVDLVFGSHSQLRALAEVYGSADAQEKFVRDFVAVWNKVMNLDRFDLA | soluble
17 | MNVFKTQTLLCPSGVHSRPEDHDETPFLCSKAQSVTVVAFLVARLLATLATHQMTSHTEGLRKGGGRKDTQLMKGQCSAIKVIFWPGCLPQPRMHSRLHIRSINKGGQLRPTGCNK | soluble
